From paper PMC6602975

What was measured:
[1] = target: Unmodified nucleosome core particle (X. laevis histone octamer on 147 bp Widom-601 DNA) (X. laevis); test: native gel or EMSA; increasing amounts of Orc1 or Sir3 proteins with 50 or 25 nM nucleosomes; 10 mM Tris pH 7.5, 50 mM NaCl, 2.5% glycerol, 1 mM DTT; room temperature, 30 min; native PAGE 6% (Sir3) or 8% (Orc1), 0.2X TBE; decrease of free nucleosome; apparent KD from a Hill fit
[2] = target: H4K16ac nucleosome (X. laevis | not stated); test: as above

Wild-type Orc1 (1–214) BAH domain, sequence (P54784 1-214): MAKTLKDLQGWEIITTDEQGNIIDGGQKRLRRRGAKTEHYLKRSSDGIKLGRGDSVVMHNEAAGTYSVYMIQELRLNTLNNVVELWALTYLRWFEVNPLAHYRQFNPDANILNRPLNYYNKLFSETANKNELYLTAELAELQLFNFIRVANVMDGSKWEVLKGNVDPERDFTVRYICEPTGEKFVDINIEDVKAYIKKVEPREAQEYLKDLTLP

Kd [1]: 1.3 µM
Kd [2]: 1.5 µM
Substance: Wild-type Orc1 (1–214) BAH domain (from UniProt P54784 1-214) (domain or fragment)
